# US20150023971A1
# B1: recombinant his-S-tagged pro-domain of human BDNF (residues Ala1-Arg110), from pET-30 Xa/LIC, E. coli (protein, not shown: small tags and cut ends)
# chain: APMKEANIRGQGGLAYPGVRTHGTLESVNGPKAGSGLTSLADTFEHVIEELLDEDQKVRPNEENNKDADLYTSRVMLSSQVPLEPPLLFLLEEYKNYLDAANMSMRVRR
# Assays:
# [1] = target: T1, …; assay: SPOT length analysis, dot 5, HRP-S-protein detection
# T1 sequence (peptide): IFRSSDFAKNFVQT
# [2] = target: T2, …; assay: SPOT length analysis, dot 7, HRP-S-protein detection
# T2 sequence (peptide): RIFRSSDFAKNFV
# [3] = target: T3, …; assay: SPOT length analysis, dot 8, HRP-S-protein detection
# T3 sequence (peptide): IFRSSDFAKNFVQ
# [4] = target: T4, …; assay: SPOT length analysis, dot 12, HRP-S-protein detection
# T4 sequence (peptide): IFRSSDFAKNFV
# [5] = target: T5, …; assay: SPOT length analysis, dot 16, HRP-S-protein detection
# T5 sequence (peptide): RIFRSSDFAKN
# [6] = target: T6, …; assay: SPOT length analysis, dot 17, HRP-S-protein detection
# T6 sequence (peptide): IFRSSDFAKNF
# [7] = target: T7, …; assay: SPOT length analysis, dot 18, HRP-S-protein detection
# T7 sequence (peptide): FRSSDFAKNFV
# [8] = target: T8, …; assay: SPOT length analysis, dot 33, HRP-S-protein detection
# T8 sequence (peptide): SSDFAKNFV
# [9] = target: T9, …; assay: SPOT length analysis, dot 35, HRP-S-protein detection
# T9 sequence (peptide): DFAKNFVQT
# SSDFAKNF = target: T10, SSDFAKNF; assay: SPOT length analysis, dot 41, HRP-S-protein detection
# T10 sequence (peptide): SSDFAKNF
# RIFRSSD [10] = target: T11, RIFRSSD; assay: SPOT length analysis, dot 46, HRP-S-protein detection
# T11 sequence (peptide): RIFRSSD
# RSSDFAK = target: T12, RSSDFAK; assay: SPOT length analysis, dot 49, HRP-S-protein detection
# T12 sequence (peptide): RSSDFAK
# SDFAKNF [11] = target: T13, SDFAKNF; assay: SPOT length analysis, dot 51, HRP-S-protein detection
# T13 sequence (peptide): SDFAKNF
# DFAKNFV [12] = target: T14, DFAKNFV; assay: SPOT length analysis, dot 52, HRP-S-protein detection
# T14 sequence (peptide): DFAKNFV
# [13] = target: T15, …; assay: SPOT length analysis, dot 6, anti-histidine detection
# T15 sequence (peptide): FRSSDFAKNFVQTD
# SSDFAK = target: T16, SSDFAK; assay: SPOT length analysis, dot 60, HRP-S-protein detection
# T16 sequence (peptide): SSDFAK
# IFRSS = target: T17, IFRSS; assay: SPOT length analysis, dot 68, HRP-S-protein detection
# T17 sequence (peptide): IFRSS
# FRSSD [14] = target: T18, FRSSD; assay: SPOT length analysis, dot 69, HRP-S-protein detection
# T18 sequence (peptide): FRSSD
# SSDFA = target: T19, SSDFA; assay: SPOT length analysis, dot 71, HRP-S-protein detection
# T19 sequence (peptide): SSDFA
# SDFAK = target: T20, SDFAK; assay: SPOT length analysis, dot 72, HRP-S-protein detection
# T20 sequence (peptide): SDFAK
# FAKNF = target: T21, FAKNF; assay: SPOT length analysis, dot 74, HRP-S-protein detection
# T21 sequence (peptide): FAKNF
# FVQTD [15] = target: T22, FVQTD; assay: SPOT length analysis, dot 78, HRP-S-protein detection
# T22 sequence (peptide): FVQTD
# DFAK [16] = target: T23, DFAK; assay: SPOT length analysis, dot 85, HRP-S-protein detection
# T23 sequence (peptide): DFAK
# NFVQ [17] = target: T24, NFVQ; assay: SPOT length analysis, dot 89, HRP-S-protein detection
# T24 sequence (peptide): NFVQ
# [18] = target: T25, …; assay: SPOT length analysis, dot 9, anti-histidine detection
# T25 sequence (peptide): FRSSDFAKNFVQT
# [19] = target: T26, …; assay: SPOT length analysis, dot 15, anti-histidine detection
# T26 sequence (peptide): SSDFAKNFVQTD
# [20] = target: T6, …; assay: SPOT length analysis, dot 17, anti-histidine detection
# [21] = target: T27, …; assay: SPOT length analysis, dot 21, anti-histidine detection
# T27 sequence (peptide): SDFAKNFVQTD
# [22] = target: T28, …; assay: SPOT length analysis, dot 30, anti-histidine detection
# T28 sequence (peptide): IFRSSDFAK
# [23] = target: T29, …; assay: SPOT length analysis, dot 31, anti-histidine detection
# T29 sequence (peptide): FRSSDFAKN
# [24] = target: T30, …; assay: SPOT length analysis, dot 34, anti-histidine detection
# T30 sequence (peptide): SDFAKNFVQ
# [25] = target: T9, …; assay: SPOT length analysis, dot 35, anti-histidine detection
# [26] = target: T31, sortilin peptide … on SPOT membrane; assay: SPOT length analysis, dot 36, anti-histidine detection
# T31 sequence (peptide, C-terminus anchored to the cellulose membrane through a beta-alanine linker): FAKNFVQTD
# RIFRSSD [27] = target: T11, RIFRSSD; assay: SPOT length analysis, dot 46, anti-histidine detection
# FRSSDFA = target: T32, FRSSDFA; assay: SPOT length analysis, dot 48, anti-histidine detection
# T32 sequence (peptide): FRSSDFA
# SDFAKNF [28] = target: T13, SDFAKNF; assay: SPOT length analysis, dot 51, anti-histidine detection
# DFAKNFV [29] = target: T14, DFAKNFV; assay: SPOT length analysis, dot 52, anti-histidine detection
# FRSSD [30] = target: T18, FRSSD; assay: SPOT length analysis, dot 69, anti-histidine detection
# FVQTD [31] = target: T22, FVQTD; assay: SPOT length analysis, dot 78, anti-histidine detection
# RSSD = target: T33, RSSD; assay: SPOT length analysis, dot 82, anti-histidine detection
# T33 sequence (peptide): RSSD
# SSDF = target: T34, SSDF; assay: SPOT length analysis, dot 83, anti-histidine detection
# T34 sequence (peptide): SSDF
# SDFA = target: T35, SDFA; assay: SPOT length analysis, dot 84, anti-histidine detection
# T35 sequence (peptide): SDFA
# DFAK [32] = target: T23, DFAK; assay: SPOT length analysis, dot 85, anti-histidine detection
# FAKN = target: T36, FAKN; assay: SPOT length analysis, dot 86, anti-histidine detection
# T36 sequence (peptide): FAKN
# NFVQ [33] = target: T24, NFVQ; assay: SPOT length analysis, dot 89, anti-histidine detection
# FAKNFV [34] = target: T37, FAKNFV; assay: SPOT length analysis, dot 63, HRP-S-protein detection
# T37 sequence (peptide): FAKNFV
# FAKNFV [35] = target: T37, FAKNFV; assay: SPOT length analysis, dot 63, anti-histidine detection
# [36] = target: T38, sortilin peptide … (synthetic, soluble); assay: SPOT length analysis, dot 11 (peptide here cellulose-bound), HRP-S-protein detection
# T38 sequence (peptide): RIFRSSDFAKNF
# [37] = target: T38, sortilin peptide … (synthetic, soluble); assay: SPOT length analysis, dot 11 (peptide here cellulose-bound), anti-histidine detection
binder,measurement,setting,value
B1,BLU Sprotein,[1],190000 BLU
same,BLU Sprotein,[2],168000 BLU
same,BLU Sprotein,[3],126000 BLU
same,BLU Sprotein,[4],199000 BLU
same,BLU Sprotein,[5],63600 BLU
same,BLU Sprotein,[6],127000 BLU
same,BLU Sprotein,[7],448000 BLU
same,BLU Sprotein,[8],19000 BLU
same,BLU Sprotein,[9],19500 BLU
same,BLU Sprotein,SSDFAKNF,16300 BLU
same,BLU Sprotein,RIFRSSD [10],21500 BLU
same,BLU Sprotein,RSSDFAK,16400 BLU
same,BLU Sprotein,SDFAKNF [11],17200 BLU
same,BLU Sprotein,DFAKNFV [12],17400 BLU
same,BLU His,[13],18800 BLU
same,BLU Sprotein,SSDFAK,15900 BLU
same,BLU Sprotein,IFRSS,38500 BLU
same,BLU Sprotein,FRSSD [14],15000 BLU
same,BLU Sprotein,SSDFA,14700 BLU
same,BLU Sprotein,SDFAK,14800 BLU
same,BLU Sprotein,FAKNF,17500 BLU
same,BLU Sprotein,FVQTD [15],15100 BLU
same,BLU Sprotein,DFAK [16],13300 BLU
same,BLU Sprotein,NFVQ [17],13400 BLU
same,BLU His,[18],19700 BLU
same,BLU His,[19],19200 BLU
same,BLU His,[20],40700 BLU
same,BLU His,[21],15700 BLU
same,BLU His,[22],20800 BLU
same,BLU His,[23],20400 BLU
same,BLU His,[24],18400 BLU
same,BLU His,[25],19100 BLU
same,BLU His,[26],30800 BLU
same,BLU His,RIFRSSD [27],20200 BLU
same,BLU His,FRSSDFA,16600 BLU
same,BLU His,SDFAKNF [28],17200 BLU
same,BLU His,DFAKNFV [29],17300 BLU
same,BLU His,FRSSD [30],15600 BLU
same,BLU His,FVQTD [31],22400 BLU
same,BLU His,RSSD,15000 BLU
same,BLU His,SSDF,14100 BLU
same,BLU His,SDFA,14200 BLU
same,BLU His,DFAK [32],14400 BLU
same,BLU His,FAKN,15200 BLU
same,BLU His,NFVQ [33],14700 BLU
same,BLU Sprotein,FAKNFV [34],29600 BLU
same,BLU His,FAKNFV [35],142000 BLU
same,BLU Sprotein,[36],166000 BLU
same,BLU His,[37],100000 BLU
